{
  "source": "paper PMC4786117",
  "about": "“Human PIEZO1 Ion Channel Functions as a Split Protein” (PLoS ONE, 2016)",
  "binders": {"B1": {"name": "hPIEZO1 N-terminal segment (residues 1-1591) with mCherry linked at its end (domain or fragment, human, UniProt Q92508 1-1591, looked up)", "chain": "MEPHVLGAVLYWLLLPCALLAACLLRFSGLSLVYLLFLLLLPWFPGPTRCGLQGHTGRLLRALLGLSLLFLVAHLALQICLHIVPRLDQLLGPSCSRWETLSRHIGVTRLDLKDIPNAIRLVAPDLGILVVSSVCLGICGRLARNTRQSPHPRELDDDERDVDASPTAGLQEAATLAPTRRSRLAARFRVTAHWLLVAAGRVLAVTLLALAGIAHPSALSSVYLLLFLALCTWWACHFPISTRGFSRLCVAVGCFGAGHLICLYCYQMPLAQALLPPAGIWARVLGLKDFVGPTNCSSPHALVLNTGLDWPVYASPGVLLLLCYATASLRKLRAYRPSGQRKEAAKGYEARELELAELDQWPQERESDQHVVPTAPDTEADNCIVHELTGQSSVLRRPVRPKRAEPREASPLHSLGHLIMDQSYVCALIAMMVWSITYHSWLTFVLLLWACLIWTVRSRHQLAMLCSPCILLYGMTLCCLRYVWAMDLRPELPTTLGPVSLRQLGLEHTRYPCLDLGAMLLYTLTFWLLLRQFVKEKLLKWAESPAALTEVTVADTEPTRTQTLLQSLGELVKGVYAKYWIYVCAGMFIVVSFAGRLVVYKIVYMFLFLLCLTLFQVYYSLWRKLLKAFWWLVVAYTMLVLIAVYTFQFQDFPAYWRNLTGFTDEQLGDLGLEQFSVSELFSSILVPGFFLLACILQLHYFHRPFMQLTDMEHVSLPGTRLPRWAHRQDAVSGTPLLREEQQEHQQQQQEEEEEEEDSRDEGLGVATPHQATQVPEGAAKWGLVAERLLELAAGFSDVLSRVQVFLRRLLELHVFKLVALYTVWVALKEVSVMNLLLVVLWAFALPYPRFRPMASCLSTVWTCVIIVCKMLYQLKVVNPQEYSSNCTEPFPNSTNLLPTEISQSLLYRGPVDPANWFGVRKGFPNLGYIQNHLQVLLLLVFEAIVYRRQEHYRRQHQLAPLPAQAVFASGTRQQLDQDLLGCLKYFINFFFYKFGLEICFLMAVNVIGQRMNFLVTLHGCWLVAILTRRHRQAIARLWPNYCLFLALFLLYQYLLCLGMPPALCIDYPWRWSRAVPMNSALIKWLYLPDFFRAPNSTNLISDFLLLLCASQQWQVFSAERTEEWQRMAGVNTDRLEPLRGEPNPVPNFIHCRSYLDMLKVAVFRYLFWLVLVVVFVTGATRISIFGLGYLLACFYLLLFGTALLQRDTRARLVLWDCLILYNVTVIISKNMLSLLACVFVEQMQTGFCWVIQLFSLVCTVKGYYDPKEMMDRDQDCLLPVEEAGIIWDSVCFFFLLLQRRVFLSHYYLHVRADLQATALLASRGFALYNAANLKSIDFHRRIEEKSLAQLKRQMERIRAKQEKHRQGRVDRSRPQDTLGPKDPGLEPGPDSPGGSSPPRRQWWRPWLDHATVIHSGDYFLFESDSEEEEEAVPEDPRPSAQSAFQLAYQAWVTNAQAVLRRRQQEQEQARQEQAGQLPTGGGPSQEVEPAEGPEEAAAGRSHVVQRVLSTAQFLWMLGQALVDELTRWLQEFTRHHGTMSDVLRAERYLLTQELLQGGEVHRGVLDQLYTSQAEATLPGPTEAPNAPSTVS", "notes": "PIEZO1, human, residues 1-1591, first cistron of the bicistronic vector hPIEZO1 NtCt; also called Nt-mCherry; N-terminal fragment; source: HEK293, transfected with the bicistronic plasmid hPIEZO1 NtCt, in living cells; not shown: mCherry, C-terminal, kept"}},
  "molecular_target": "T1, hPIEZO1 C-terminal segment (residues 1592-2521) with N-terminal GFP (human, UniProt Q92508 1592-2521)",
  "T1 construct": "PIEZO1, human, residues 1592-2521, second cistron (after the IRES element) of the bicistronic vector hPIEZO1 NtCt; the methods say amplified from amino acid 1591 to the end, the results print 1592 to 2251 and 1591-2251; C-terminus amplified from HekP1; inserted at a SpeI site after the GFP of pIRES2-EGFP, so GFP precedes the segment; also called Ct-EGFP; C-terminal fragment; source: HEK293, …",
  "T1 sequence (looked up)": "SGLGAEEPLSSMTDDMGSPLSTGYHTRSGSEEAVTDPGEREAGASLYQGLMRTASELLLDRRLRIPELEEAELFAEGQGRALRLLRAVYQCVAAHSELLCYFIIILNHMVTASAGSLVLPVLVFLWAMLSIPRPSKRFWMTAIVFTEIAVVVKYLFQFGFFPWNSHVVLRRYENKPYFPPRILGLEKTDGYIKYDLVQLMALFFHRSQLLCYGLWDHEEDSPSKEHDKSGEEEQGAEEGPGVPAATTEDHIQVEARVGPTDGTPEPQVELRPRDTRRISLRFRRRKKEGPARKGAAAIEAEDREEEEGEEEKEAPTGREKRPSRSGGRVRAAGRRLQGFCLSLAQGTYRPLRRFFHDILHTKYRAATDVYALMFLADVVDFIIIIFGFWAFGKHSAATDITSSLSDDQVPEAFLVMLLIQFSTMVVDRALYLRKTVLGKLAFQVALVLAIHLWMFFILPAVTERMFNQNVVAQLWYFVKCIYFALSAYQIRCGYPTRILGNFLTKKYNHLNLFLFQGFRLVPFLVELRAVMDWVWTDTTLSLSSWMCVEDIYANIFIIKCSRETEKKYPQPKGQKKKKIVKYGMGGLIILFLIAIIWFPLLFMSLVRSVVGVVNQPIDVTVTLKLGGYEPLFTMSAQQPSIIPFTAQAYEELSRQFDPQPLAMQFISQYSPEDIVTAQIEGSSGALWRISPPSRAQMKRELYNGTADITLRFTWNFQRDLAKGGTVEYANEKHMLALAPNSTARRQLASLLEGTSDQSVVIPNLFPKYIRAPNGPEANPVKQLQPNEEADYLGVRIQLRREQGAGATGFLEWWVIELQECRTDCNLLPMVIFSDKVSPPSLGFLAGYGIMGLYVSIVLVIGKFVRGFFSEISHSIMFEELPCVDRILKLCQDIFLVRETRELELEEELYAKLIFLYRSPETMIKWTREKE",
  "experiment": "FRET or BRET; living HEK293 cells transfected with bicistronic vectors; EGFP and mCherry fusions; FRET ratio = 680 nm emission excited at 480 nm over 680 nm emission excited at 560 nm",
  "settings": "partners not purified",
  "data": [
    {"binder": "B1", "values": [
      {"measurement": "FRET ratio", "value": 3.4}
    ]}
  ]
}
